# Ends that are not written are not given here.
# T1: ApoC3 peptide … A39V (human, not fully specified (bridges); also: cyclic constrained)
# T1 peptide: VRGWVTDGFSSLK
# T2: ApoC3 peptide … K51Y (human, not fully specified; cyclic constrained)
# T2 peptide: ARGWVTDGFSSLY
# T3: ApoC3 peptide … G46H (human, not fully specified (bridges); also: cyclic constrained)
# T3 peptide: ARGWVTDHFSSLK
# T4: ApoC3 peptide … V43L (human, not fully specified; cyclic constrained)
# T4 peptide: ARGWLTDGFSSLK
# T5: ApoC3 peptide … S48R (human, not fully specified (bridges); also: cyclic constrained)
# T5 peptide: ARGWVTDGFRSLK
# T6: ApoC3 peptide … R40C (human, not fully specified (bridges); also: cyclic constrained)
# T6 peptide: ACGWVTDGFSSLK
# T7: ApoC3 peptide … F47H (human, not fully specified (bridges); also: cyclic constrained)
# T7 peptide: ARGWVTDGHSSLK
# T8: ApoC3 peptide … F47P (human, not fully specified (bridges); also: cyclic constrained)
# T8 peptide: ARGWVTDGPSSLK
# T9: ApoC3 peptide … T44L (human, not fully specified (bridges); also: cyclic constrained)
# T9 peptide: ARGWVLDGFSSLK
# T10: ApoC3 peptide … G46P (human, not fully specified (bridges); also: cyclic constrained)
# T10 peptide: ARGWVTDPFSSLK
# T11: ApoC3 peptide … S48Y (human, not fully specified (bridges); also: cyclic constrained)
# T11 peptide: ARGWVTDGFYSLK
# T12: ApoC3 peptide … L50E (human, not fully specified; cyclic constrained)
# T12 peptide: ARGWVTDGFSSEK
# T13: ApoC3 peptide … A39K (human, cyclic constrained)
# T13 peptide: KRGWVTDGFSSLK
# T14: ApoC3 peptide … F47E (human, not fully specified (bridges); also: cyclic constrained)
# T14 peptide: ARGWVTDGESSLK
# T15: ApoC3 peptide … S49Y (human, not fully specified (bridges); also: cyclic constrained)
# T15 peptide: ARGWVTDGFSYLK
# T16: ApoC3 peptide … W42A (human, not fully specified (bridges); also: cyclic constrained)
# T16 peptide: ARGAVTDGFSSLK
# T17: ApoC3 peptide … L50D (human, not fully specified; cyclic constrained)
# T17 peptide: ARGWVTDGFSSDK
# T18: ApoC3 peptide … D45K (human, cyclic constrained)
# T18 peptide: ARGWVTKGFSSLK
# T19: ApoC3 peptide … G41F (human, also: cyclic constrained)
# T19 peptide: ARFWVTDGFSSLK
# T20: ApoC3 peptide … R40Y (human, thioether (positions not given here); also: cyclic constrained)
# T20 peptide: AYGWVTDGFSSLK
# T21: ApoC3 peptide … R40V (human, thioether (positions not given here); also: cyclic constrained)
# T21 peptide: AVGWVTDGFSSLK
# T22: ApoC3 peptide … F47I (human, not fully specified (bridges); also: cyclic constrained)
# T22 peptide: ARGWVTDGISSLK
# T23: ApoC3 peptide … T44D (human, not fully specified (bridges); also: cyclic constrained)
# T23 peptide: ARGWVDDGFSSLK
# T24: ApoC3 peptide … L50A (human, not fully specified; cyclic constrained)
# T24 peptide: ARGWVTDGFSSAK
# T25: ApoC3 peptide … T44G (human, not fully specified (bridges); also: cyclic constrained)
# T25 peptide: ARGWVGDGFSSLK
# Key:
# Assay in all cases: peptide microarray
# ApoC3 peptide … A39V = target: T1, ApoC3 peptide … A39V
# Outline: (§1)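 Peptide microarrays of ApoC3-derived peptides incubated with antibody samples, then stained with goat anti-human IgG (Fc) DyLight680 (1:5000) and anti-HA DyLight800 (1:2000) control. Read-out by fluorescence scanning at intensities 7/7 (red/green); a secondary-only pre-stain checked background, HA frame peptides served as quality control.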
# ApoC3 peptide … K51Y = target: T2, ApoC3 peptide … K51Y
# Outline: as §1
# ApoC3 peptide … G46H = target: T3, ApoC3 peptide … G46H
# Outline: as §1
# ApoC3 peptide … S48M = ApoC3 peptide … S48M (human, cyclic constrained)
# Outline: as §1
# ApoC3 peptide … V43L = target: T4, ApoC3 peptide … V43L
# Outline: as §1
# ApoC3 peptide … S48R = target: T5, ApoC3 peptide … S48R
# Outline: as §1
# ApoC3 peptide … R40C = target: T6, ApoC3 peptide … R40C
# Outline: as §1
# ApoC3 peptide … F47H = target: T7, ApoC3 peptide … F47H
# Outline: as §1
# ApoC3 peptide … F47P = target: T8, ApoC3 peptide … F47P
# Outline: as §1
# ApoC3 peptide … T44L = target: T9, ApoC3 peptide … T44L
# Outline: as §1
# ApoC3 peptide … G46P = target: T10, ApoC3 peptide … G46P
# Outline: as §1
# ApoC3 peptide … S48Y = target: T11, ApoC3 peptide … S48Y
# Outline: as §1
# ApoC3 peptide … L50E = target: T12, ApoC3 peptide … L50E
# Outline: as §1
# ApoC3 peptide … A39K = target: T13, ApoC3 peptide … A39K
# Outline: as §1
# ApoC3 peptide … F47E = target: T14, ApoC3 peptide … F47E
# Outline: as §1
# ApoC3 peptide … S49Y = target: T15, ApoC3 peptide … S49Y
# Outline: as §1
# ApoC3 peptide … W42A = target: T16, ApoC3 peptide … W42A
# Outline: as §1
# ApoC3 peptide … L50D = target: T17, ApoC3 peptide … L50D
# Outline: as §1
# ApoC3 peptide … D45K = target: T18, ApoC3 peptide … D45K
# Outline: as §1
# ApoC3 peptide … G41F = target: T19, ApoC3 peptide … G41F
# Outline: as §1
# ApoC3 peptide … R40Y = target: T20, ApoC3 peptide … R40Y
# Outline: as §1
# ApoC3 peptide … R40V = target: T21, ApoC3 peptide … R40V
# Outline: as §1
# ApoC3 peptide … F47I = target: T22, ApoC3 peptide … F47I
# Outline: as §1
# ApoC3 peptide … T44D = target: T23, ApoC3 peptide … T44D
# Outline: as §1
# ApoC3 peptide … L50A = target: T24, ApoC3 peptide … L50A
# Outline: as §1
# ApoC3 peptide … T44G = target: T25, ApoC3 peptide … T44G
# Outline: as §1
binder,measurement,setting,value
"anti-ApoC3 antibody 14C7 (antibody, V domains shown, it was detected with goat anti-human IgG (Fc); also called mAb 14C7; llama antibody 14C7) VH: QVQVQESGPGLVKPSQTLSLTCTVSGGSITTNSYYWSWIRQPPGKGLEWMGAIDYSGDTYYSPSLKSRTSISRDTSKNQFTLQLTSVTPEDTAVYYCVSRIPTGEYWGQGTQVTVSS VL: QTVVTQEPSLSVSPGGTVTLTCGLNSGSVTSSNYPDWYQQTPGQAPRLLIYNTNSRHSGVPSRFSGSISGNKAALTITGAQPEDEADYYCALYMGSDSVVFGGGTHLTVL",% of binding to wild-type peptide,ApoC3 peptide … A39V,76%
same,% of binding to wild-type peptide,ApoC3 peptide … K51Y,0%
same,% of binding to wild-type peptide,ApoC3 peptide … G46H,1.81%
same,% of binding to wild-type peptide,ApoC3 peptide … S48M,121%
same,% of binding to wild-type peptide,ApoC3 peptide … V43L,429%
same,% of binding to wild-type peptide,ApoC3 peptide … S48R,34.5%
same,% of binding to wild-type peptide,ApoC3 peptide … R40C,62.3%
same,% of binding to wild-type peptide,ApoC3 peptide … F47H,0%
same,% of binding to wild-type peptide,ApoC3 peptide … F47P,0%
same,% of binding to wild-type peptide,ApoC3 peptide … T44L,0.5%
same,% of binding to wild-type peptide,ApoC3 peptide … G46P,0%
same,% of binding to wild-type peptide,ApoC3 peptide … S48Y,5.83%
same,% of binding to wild-type peptide,ApoC3 peptide … L50E,0%
same,% of binding to wild-type peptide,ApoC3 peptide … A39K,72.9%
same,% of binding to wild-type peptide,ApoC3 peptide … F47E,0%
same,% of binding to wild-type peptide,ApoC3 peptide … S49Y,0%
same,% of binding to wild-type peptide,ApoC3 peptide … W42A,116%
same,% of binding to wild-type peptide,ApoC3 peptide … L50D,0%
same,% of binding to wild-type peptide,ApoC3 peptide … D45K,39.4%
same,% of binding to wild-type peptide,ApoC3 peptide … G41F,10.8%
same,% of binding to wild-type peptide,ApoC3 peptide … R40Y,37.5%
same,% of binding to wild-type peptide,ApoC3 peptide … R40V,57.5%
same,% of binding to wild-type peptide,ApoC3 peptide … F47I,0%
same,% of binding to wild-type peptide,ApoC3 peptide … T44D,0%
same,% of binding to wild-type peptide,ApoC3 peptide … L50A,0%
same,% of binding to wild-type peptide,ApoC3 peptide … T44G,0%

# Source: patent US20190241648A1 (STATEN BIOTECHNOLOGY B V, published 2019)
